Values quoted from earlier work in publication PMC6596353.
pKd: −log10 of the molar value.

Biological target: ST2 (Homo sapiens) (UniProt Q01638)
UniProt Q01638, sequence (Q01638 19-556): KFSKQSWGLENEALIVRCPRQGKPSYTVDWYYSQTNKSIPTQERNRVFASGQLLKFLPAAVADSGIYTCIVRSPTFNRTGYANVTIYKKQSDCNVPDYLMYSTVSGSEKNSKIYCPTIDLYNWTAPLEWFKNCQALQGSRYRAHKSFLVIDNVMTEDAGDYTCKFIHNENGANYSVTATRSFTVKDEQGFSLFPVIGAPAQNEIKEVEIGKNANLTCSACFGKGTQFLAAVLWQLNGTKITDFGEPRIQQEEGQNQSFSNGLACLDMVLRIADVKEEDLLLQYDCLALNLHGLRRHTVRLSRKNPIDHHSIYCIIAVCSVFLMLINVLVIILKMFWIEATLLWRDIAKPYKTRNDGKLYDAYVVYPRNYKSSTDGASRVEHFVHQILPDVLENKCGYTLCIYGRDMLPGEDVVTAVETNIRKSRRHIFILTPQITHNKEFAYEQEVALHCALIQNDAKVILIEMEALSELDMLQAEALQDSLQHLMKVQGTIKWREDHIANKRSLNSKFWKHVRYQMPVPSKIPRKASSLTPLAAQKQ

Q: With IL-33 (from UniProt O95760) as the substance, how does the pKd read?
A: The pKd was 9.35.
